{"source": "patent US20100240578A1", "about": "(priority 2006, published 2010)", "molecules": {"B1": {"name": "Cyanovirin-N (protein, listed as Nostoc ellipsosporum)", "chain": "LGKFSQTCYNSAIQGSVLTSTCERTNGGYNTSSIDLNSVIENVDGSLKWQPSNFIETCRNTQLAGSSELAAECKTRAQQFVSTKINLDDHIANIDGTLKYE"}}, "assay_type_in_all_cases": "cell-based, avian influenza A (H5N1)", "key": {"[1]": {"tested_on": "humanized H5N1 influenza virus strain Vietnam/1203/2004H"}, "[2]": {"tested_on": "bird H5N1 influenza virus strain Gull/PA/4175/83"}, "[3]": {"tested_on": "bird H5N1 influenza virus strain Duck/MN/1525/81"}, "[4]": {"tested_on": "humanized H5N1 influenza virus strain Vietnam/1203/2004H", "remark": "listed apart in the source"}, "[5]": {"tested_on": "humanized H5N1 influenza virus strain Hong Kong/213/2003"}, "[6]": {"tested_on": "humanized H5N1 influenza virus strain Hong Kong/491/1997"}, "[7]": {"tested_on": "humanized H5N1 influenza virus strain Hong Kong/213/2003", "remark": "listed apart in the source"}, "[8]": {"tested_on": "bird H5N1 influenza virus strain Duck/MN/1525/81", "remark": "listed apart in the source"}, "[9]": {"tested_on": "all tested strains of H5N1"}, "[10]": {"tested_on": "bird H5N1 influenza virus strain Gull/PA/4175/83", "remark": "listed apart in the source"}, "[11]": {"tested_on": "humanized H5N1 influenza virus strain Vietnam/1203/2004H", "remark": "listed apart in the source"}, "[12]": {"tested_on": "humanized H5N1 influenza virus strain Hong Kong/491/1997", "remark": "listed apart in the source"}}, "note": "Where two headings read alike, the source gives them in different places."}
{"molecule": "B1", "values": [{"measurement": "EC90", "setting": "[1]", "result": 0.2, "unit": "µg/mL"}, {"measurement": "EC50", "setting": "[2]", "result": 0.1, "unit": "µg/mL"}, {"measurement": "IC50", "setting": "[2]", "result": 3, "unit": "µg/mL"}, {"measurement": "activity against the strain (in words)", "setting": "[2]", "result": "moderately active"}, {"measurement": "EC50", "setting": "[3]", "result": 0.5, "unit": "µg/mL"}, {"measurement": "IC50", "setting": "[3]", "result": 2, "unit": "µg/mL"}, {"measurement": "EC50", "setting": "[4]", "result": 0.03, "unit": "µg/mL"}, {"measurement": "IC50", "setting": "[4]", "result": ">1", "unit": "µg/mL"}, {"measurement": "IC50", "setting": "[5]", "result": ">1", "unit": "µg/mL"}, {"measurement": "activity against the strain (in words)", "setting": "[5]", "result": "highly active"}, {"measurement": "EC50", "setting": "[6]", "result": "<0.0032", "unit": "µg/mL"}, {"measurement": "IC50", "setting": "[6]", "result": 3, "unit": "µg/mL"}, {"measurement": "activity against the strain (in words)", "setting": "[6]", "result": "moderately active"}, {"measurement": "IC50", "setting": "[7]", "result": ">1", "unit": "µg/mL"}, {"measurement": "EC90", "setting": "[8]", "result": 0.7, "unit": "µg/mL"}, {"measurement": "activity against all tested strains of H5N1 (in words)", "setting": "[9]", "result": "active"}, {"measurement": "EC90", "setting": "[10]", "result": 0.1, "unit": "µg/mL"}, {"measurement": "activity against the strain (in words)", "setting": "[11]", "result": "moderately active"}, {"measurement": "EC90", "setting": "[12]", "result": 0.1, "unit": "µg/mL"}]}
